Source: a protein production outcome set (Wang et al. 2014)

Assay: label from the status in PepcDB records

MEQDHVKVKKRVAFVLIDGLGDVTIPKLGYKTPLQAANIPNLDAIASAGINGLMDPVEVGLGCGSDTAHLSLMGYDPRVYYRGRGAFESMGAGLAMSPGDIAFKSNFATLDEKSGVVVSRRADRHFEEEGPILCAALDGLKLQSFPEYEVRVRYATEHRCGVVVKGPRLSGNISGTDPLKDNRLLLEAKPLDESEEATHTAKVVNELSREISRILVSHPVNAERAAQGKNIANLVLLRGCGIRIEVPPFHEKHGLWPCMVAPTKIIAGLGMSLGIDILEAPGATGDYRTLLTSKATAIANALSAPLNPCPNVFVPGEDGHKPGRSDGYDFGFLHIKAIDDAGHDKATMFKVRGLEAVDKAIRQLAKLLWQAESSTHYQYFLCVTGDHSTPVEYGDHSFEPVPFTMCRLRDFVSAVGGESAVLETSLDPFPLPTVVESGEDVTKQEEESGRREAPLAIGGDLVAELNEVAAARGCLGRFHGGEMMGVITNFLNLEV
protein production: failed

KEMKQIQNEFKERMDEGELLNCMRCGFCLPSCPTYIESGFQETHSPRGRIALMKAVADGMIEPDEDVERSLSLCLGCRACEPVCPSGVKYGQLLEEARDIIHQNKKHSLGE
protein production: failed

DDAGKTAIYWLGYDLPPEIPTIVILHTITGTPSSMRELVRDLHQHTGWRIALCVRRGHADLEFSVPRFNLFGSVSDLKQQLDYIQNHFPQSNLYGVGSSAGSGLLVRYLGEEADEAYFKAAFAFCPGYNTETGFEKVHPVYSQYMAKKLLKTFVYKYIDSWQHVENLEEVLSSKNLTEFHLRYYKLAGFKNYQEYSLATNPMHVFKNIKIPLMVLNSQDDPVCHIDNFEPYIPEIQKLSNIVVVTTKKGSHCAFYEGWTPQSWASRLMANYFLQHHQ
protein production: failed

MAWGVCDINGSFAGQNPVTTRLSVRRCQWRCVDFAHSKCLRTQNYRVQMRSCRTGVYGSPRGDANEAVPPPHQPKGPLRTMPLETLINAGFVDYLILLIYFVFVLGIGLAARHQVSDSLDFFLSGRSLPGWVTGLAFVSANLGAVEIMGMSANGAQIGIPTVHYFWIGAIPAMVFLGIVMMPFYYGSGVRSVPEFMLKRFGPAAHLVNAISFALAQLLIAGINLYLLGTIVHALLGWPLWVALIVAAMIVLAYISLGGLSAAIYNEVLQFFVIVASLLPLVIIGLHRVGGWSGLKAKITAAAEAHPDVVTPAAQQLHSWPGQALSGFGSPVMSVIGITLGLGFVLSFGYWTTNFVEVQRAMASDSLSSARKTPTIGAFPKMLVPFLTVLPGMLAAVLVPEIARMKAGEKVAGGASGSFVQYNDSVLFLIRNLLPTGLTGVAITGLLAAFMAGMAANISAFNTVFSVDIWQHYVIKDKPDGYYVKVGRIATVIATVVAIGTAFMASGFSNIMDYLQTLFGFFNAPLFATFILGMFWKRSTPHAGWSGLVVGTLSAVTVWVMSLAGVFTLPGQGTAFLAATVGFVADIIVSIVVSLFTEPKPAAELVRLVYSETPKEHLVDPLEKDLPWYRRTVPLGMTVLAITVVLNIIF
protein production: failed

MSTSHPISKIYFSDKKSLQKVDILLEQEGIRRDTNLDYICAMFDDDLNIIATGSCFGNTLRCLSVDHHYQGDGLLNEIVTHLINIQFERGNTHLFLYTKPDTAKFFKDLGFYEIARADKQIVFMENKKDGFSNYLKNLEKPDSECQTTAALVINANPFTLGHQYLVEKAAAENELLHLFMVSDDSSLIPFSVRKQLILAGTEHLSNICYHETGPYIISKSIFPSYFQKDQASVIESQARIDLAIFIQIAKYLGIKGRYVGEEPTSLVTGIYNQIMLQELPKQAIDCIVVPRKTYKDGPISASTVRKALKEGNEQILRELLPSTSLNYFLSPEAQPLIKKIQKADNVIHY
protein production: failed

MRSDVVARAMRLIADGTVDRDGVSGLAAQLGYTIRQLERLLQAVVGAGPLALARAQRMQTARVLIETTNLPFGDVAFAAGFSSIRQFNDTVRLACDGTPTALRARAAARFESATASAGTVSLRLPVRAPFAFEGVFGHLAATAVPGCEEVRDGAYRRTLRLPWGNGIVSLTPAPDHVRCLLVLDDFRDLMTATARCRRLLDLDADPEAIVEALGADPDLRAVVGKAPGQRIPRTVDEAEFAVRAVLAQQVSTKAASTHAGRLVAAYGRPVHDRHGALTHTFPSIEQLAEIDPGHLAVPKARQRTINALVASLADKSLVLDAGCDWQRARGQLLALPGVGPWTAEVIAMRGLGDPDAFPASDLGLRLAAKKLGLPAQRRALTVHSARWRPWRSYATQHLWTTLEHPVNQWPPQEKIALEHHHHHH
protein production: failed

MERSALVTGGASGLGRAAALALKARGYRVVVLDLRREGEDLIYVEGDVTREEDVRRAVARAQEEAPLFAVVSAAGVGLAEKILGKEGPHGLESFRRVLEVNLLGTFNVLRLAAWAMRENPPDAEGQRGVIVNTASVAAFEGQIGQAAYAASKGGVVALTLPAARELAGWGIRVVTVAPGLFDTPLLQGLPEKAKASLAAQVPFPPRLGRPEEYAALVLHILENPMLNGEVVRLDGALRMAPR
protein production: not failed

MELFTLGACRQVGKSCFVLKTSEGLVMLDCGLHPSYQDDRRYPNFSLAFSYGPLKAVFITHCHADHVGALPILTERWGYDGPIYMSEPTRKLSYYILEECVGSWGGDDEWTDSSRSEWSYTQREVESCLTKVTIMEPGQSISVGENVQVHSWMAGHVLGAYMFSIVVDNHRILYTGDFTSCPTFHLPPARVDDIPYPPDVILSEATYATSFKDGRLNNQVEFIQNVLDCLLDGGKVLVPVFAIGRAQELLLLLGK
protein production: not failed

MKRTLYSGVGLLLVGLLFLAFNLLSSLLLRDQQFDLTQQKLYTFSAGTQEVLDSLDEPLNLYLFFSKSRASDLPALRNYARRVEEVLDLYARRSHGNVRLFVIDPLPFSDDEDRAARFGLQAPPIGPNGEAIYFGLAATNPTDGLQVIPFFSPEEEPLLEYDLSRLVQALAQRERTVVGLMSSLPMTGQAPTDGQPGSRPWAMMDKLYQQFDIRTLGLASTEIPAEVSVLMLVHPRQLSEQTQYAIDQFVLRGGKLLAFVDPLSLADADGGKSSDLAPLLRSWGVQLRPDTLLADASFAMIKPNAERRPERNPTWLHLPGDTFPHDNVLTTGLESLNLASVGLLEPLGGASTRFIPLLHSSAHSMPLSLERFRQSSTEQLNATLVPTGERYVLAAKVEGPATSAFPADRGKQGEGLSDSANIHVLLVADTDLLSNPLWLQEQPGHNEPQVWADNDLFVGNALDYLSGSDALIDLRSRGHTKRPFTRVEALRREAGLRAQEQLNALQQSLNDTDRNLRTLQQSMDAGDQEVTPEMEATLRRFIDDKLRIRQQLRQLQFQLNADVERLGEQVKLANTVLLPALLTLFLLLHWSWRSMRRRRG
protein production: failed

MFEQIIAILFPVMSLVLIGYLIGLWLKPDFRPINRINMEAFVPALVFSSLVNMPLDTQQTPLLLAALVAVLLPGILMLLICRLGRWSFKTWAPLHMFRNSGNLAIPLFTYAFGETALPSAVLLFVVSMCLHISLGVAMLSKGSVLKTVLSAPVFLASSLALLLNLSGVSIWSPLYNATALLGQAAVPVMLLSLGSQMINLRLAGLKVGLVSTAQSLLTGACAFTVIYFFIPLPPLQLQMMVLFTMLPPAVMNYLFAERYHIEPTQVAAMVLFGNFFSLLSLPILLFIALSL
protein production: failed

MSVAAGGPAGAAIPESRLMALGIIGGLGGIYASTVNPVIGPVFASLGAVCAIIWGADAIRRVASYGLGTGVPSIGYMSVSIGIVGVVAGLASVFTLPALAAPVVGLILAMILGVVVAVLGKKIVKMKIPILEKCTAEISGAAALSVLGFSAAIAGSYTMQAVLTSVIATGFIGLLFILNTMAIQHPFNACLGPNENQTRTLKLAASTGFISMAIAGLLGIGLNPGWWLVSLVGALCWVVAFKSFVSASFEEAASVKWSGLWPKEEEQ
protein production: failed

MKFLELNKKRHATKHFTDKLVDPKDVRTAIEIATLAPSAHNSQPWKFVVVREKNAELAKLAYGSNFEQVSSAPVTIALFTDTDLAKRARKIARVGGANNFSEEQLQYFMKNLPAEFARYSEQQVSDYLALNAGLVAMNLVLALTDQGIGSNIILGFDKSKVNEVLEIEDRFRPELLITVGYTDEKLEPSYRLPVDEIIEKR
protein production: not failed

MKRLYKAMFIVFILLVLMFASQQGLFEHVTNSNWVAHFIKAEGNYALMALLAVGALFTAVGGPRQVIAFVFGFALGGIYGGLFSTLAALLGCVLVFYTARLTIRSSLQRRFGHRLQKFEALIIHRTWLKVLMIRLLPVGSNLLTNLFAGATHISPGGFLFGSMLGYLPQMLIFSFAGAGIGLADHNQLWISIGLFIVSSLIGAYLYRSSLRKQVDELEH
protein production: failed

MPTIFQIPTFIQILEFIGTFAFAISGIRLASAKQFDWFGAYVAGVAVAIGGGTIRDVLLDVTPFWMTNPIYLICSALALLWVIFFRKHLIHMHNTFFIFDSIGLALFTVVGISKTIDLGYAFWVAIIMGTMTGAAGGVIRDVFINEIPLIFRKEIYAMACVIGGVIYWGLDRFGVDAALTQVISGCCIFVVRALAVKYQICLPILKGE
protein production: failed
